Patent publication US6759384 (AVENTIS PHARMACEUTICALS, dated 2004)
Starred links: 1 amine or outer side, 2 acyl side, 3 side chain; linkers in the order of their positions; H or OH if unused. Positions of bridges follow the written chain, without caps; N, C: chain ends. Non-standard residues stand in square brackets, D forms with d. Primed or numbered codes have the meaning given here. No end group written: not given here. *: point of attachment. Dab(Nγ-C3H7N)″ = 2,4-diaminobutyric acid with dimethylamidinium (N,N-dimethylformamidinium) on gamma-N, C[N+](C)=CNCC[C@H](N[*:1])C(=O)[*:2]; Dab(Nγ-C3H7N) = Dab bearing Nγ-dimethylamidinium (C3H7N), C[N+](C)=CNCC[C@H](N[*:1])C(=O)[*:2]; (iBu)Tyr = N-isobutyl-L-tyrosine, CC(C)CN([C@@H](Cc1ccc(O[*:3])cc1)C(=O)[*:2])[*:1]; Tyr(Me)″ = O-methyl-tyrosine (source: Y(Me)), COc1ccc(C[C@H](N[*:1])C(=O)[*:2])cc1; Thr(Me) = O-methyl-threonine (source: T(Me)), CO[C@H](C)[C@H](N[*:1])C(=O)[*:2]; Cys(Me) = S-methylcysteine (source: C(Me)), CSC[C@H](N[*:1])C(=O)[*:2]; Pen(Me) = S-methyl-penicillamine, CSC(C)(C)[C@H](N[*:1])C(=O)[*:2]; Tyr(Me) = O-methyltyrosine, COc1ccc(C[C@H](N[*:1])C(=O)[*:2])cc1; Orn(Nδ-C3H7N) = ornithine with dimethylamidinium on delta-N; Phe(4-NO2) = N[C@@H](Cc1ccc([N+](=O)[O-])cc1)C(=O)O; Phe(4-CONH2) = NC(=O)c1ccc(C[C@H](N)C(=O)O)cc1; Phe(4-NH2) = Nc1ccc(C[C@H](N)C(=O)O)cc1; Phe(4-F) = N[C@@H](Cc1ccc(F)cc1)C(=O)O; 2Nal = N[C@@H](Cc1ccc2ccccc2c1)C(=O)O; NMeY = CN[C@@H](Cc1ccc(O)cc1)C(=O)O; dNMeY = CN[C@H](Cc1ccc(O)cc1)C(=O)O; hArg = N=C(N)NCCCC[C@H](N)C(=O)O; Cha = N[C@@H](CC1CCCCC1)C(=O)O; Agb = N=C(N)NCC[C@H](N)C(=O)O; Chg = N[C@H](C(=O)O)C1CCCCC1; Phg = N[C@H](C(=O)O)c1ccccc1; Pth = not defined here; pal = not defined here; Tfa = O=C(C(F)(F)F)*; Isobutyl = CC(C)C*; βAla = NCCC(=O)O; tBu = CC(C)(C)*

B1: Ac-E-Y-I-R-L-K-NH2** (peptide)
peptide: Ac-EYIRLK-NH2
modifications: lactam 1-6
SMILES: CC[C@H](C)[C@@H]1NC(=O)[C@H](Cc2ccc(O)cc2)NC(=O)[C@@H](NC(C)=O)CCC(=O)NCCCC[C@@H](C(N)=O)NC(=O)[C@H](CC(C)C)NC(=O)[C@H](CCCNC(=N)N)NC1=O
notes: underlining that marks the cyclized portion is lost in the text
B2: Ac-F(pF)-I-R-L-P-NH2 (peptide)
peptide: Ac-[Phe(4-F)]IRLP-NH2
SMILES: CC[C@H](C)[C@H](NC(=O)[C@H](Cc1ccc(F)cc1)NC(C)=O)C(=O)N[C@@H](CCCNC(=N)N)C(=O)N[C@@H](CC(C)C)C(=O)N1CCC[C@H]1C(N)=O
B3: Ac-Y-I-hR-L-A-NH2 (peptide)
peptide: Ac-YI[hArg]LA-NH2
SMILES: CC[C@H](C)[C@H](NC(=O)[C@H](Cc1ccc(O)cc1)NC(C)=O)C(=O)N[C@@H](CCCCNC(=N)N)C(=O)N[C@@H](CC(C)C)C(=O)N[C@@H](C)C(N)=O
B4: y-I-(nR)-L-A-NH2 (peptide)
peptide: [dY]I[Agb]LA-NH2
modifications: N-terminus assumed
SMILES: CC[C@H](C)[C@H](NC(=O)[C@H](N)Cc1ccc(O)cc1)C(=O)N[C@@H](CCNC(=N)N)C(=O)N[C@@H](CC(C)C)C(=O)N[C@@H](C)C(N)=O
B5: Ac-Y-I-Dab(N^γC3H7N)-L-A-NH2 (peptide)
peptide: Ac-YI[Dab(Nγ-C3H7N)]LA-NH2
SMILES: CC[C@H](C)[C@H](NC(=O)[C@H](Cc1ccc(O)cc1)NC(C)=O)C(=O)N[C@@H](CCNC=[N+](C)C)C(=O)N[C@@H](CC(C)C)C(=O)N[C@@H](C)C(N)=O
B6: Ac-Y-I-nR-L-A-NH2 (peptide)
peptide: Ac-YI[Agb]LA-NH2
SMILES: CC[C@H](C)[C@H](NC(=O)[C@H](Cc1ccc(O)cc1)NC(C)=O)C(=O)N[C@@H](CCNC(=N)N)C(=O)N[C@@H](CC(C)C)C(=O)N[C@@H](C)C(N)=O
B7: (Me)y-I-R-L-A-NH2 (peptide)
peptide: [dNMeY]IRLA-NH2
modifications: N-terminus assumed
SMILES: CC[C@H](C)[C@H](NC(=O)[C@@H](Cc1ccc(O)cc1)NC)C(=O)N[C@@H](CCCNC(=N)N)C(=O)N[C@@H](CC(C)C)C(=O)N[C@@H](C)C(N)=O
B8: Ac-F(pCONH2)-I-R-L-P-NH2 (peptide)
peptide: Ac-[Phe(4-CONH2)]IRLP-NH2
SMILES: CC[C@H](C)[C@H](NC(=O)[C@H](Cc1ccc(C(N)=O)cc1)NC(C)=O)C(=O)N[C@@H](CCCNC(=N)N)C(=O)N[C@@H](CC(C)C)C(=O)N1CCC[C@H]1C(N)=O
B9: F(pNH2)-I-R-L-A-NH2 (peptide)
peptide: [Phe(4-NH2)]IRLA-NH2
modifications: N-terminus assumed
SMILES: CC[C@H](C)[C@H](NC(=O)[C@@H](N)Cc1ccc(N)cc1)C(=O)N[C@@H](CCCNC(=N)N)C(=O)N[C@@H](CC(C)C)C(=O)N[C@@H](C)C(N)=O
B10: pal-C(SBut)-R-L-P-NH2 (peptide)
peptide: [pal]C(tBu)RLP-NH2
modifications: reading uncertain; also: pyridylalanine ring position not given here, printed as pal-C(SBut)-R—L—P—NH2
B11: Ac-(Me)Y-I-R-L-A-NH2 (peptide)
peptide: Ac-[NMeY]IRLA-NH2
SMILES: CC[C@H](C)[C@H](NC(=O)[C@H](Cc1ccc(O)cc1)N(C)C(C)=O)C(=O)N[C@@H](CCCNC(=N)N)C(=O)N[C@@H](CC(C)C)C(=O)N[C@@H](C)C(N)=O
B12: Nal(2)-I-R-C(Me)-P-NH2 (peptide)
peptide: [2Nal]IR[Cys(Me)]P-NH2
modifications: N-terminus assumed
SMILES: CC[C@H](C)[C@H](NC(=O)[C@@H](N)Cc1ccc2ccccc2c1)C(=O)N[C@@H](CCCNC(=N)N)C(=O)N[C@@H](CSC)C(=O)N1CCC[C@H]1C(N)=O
B13: F(pNO2)-I-R-L-A-NH2 (peptide)
peptide: [Phe(4-NO2)]IRLA-NH2
modifications: N-terminus assumed
SMILES: CC[C@H](C)[C@H](NC(=O)[C@@H](N)Cc1ccc([N+](=O)[O-])cc1)C(=O)N[C@@H](CCCNC(=N)N)C(=O)N[C@@H](CC(C)C)C(=O)N[C@@H](C)C(N)=O
B14: Tyr(Me)-I-R-L-A-NH2 (peptide)
peptide: [Tyr(Me)]IRLA-NH2
modifications: N-terminus assumed
SMILES: CC[C@H](C)[C@H](NC(=O)[C@@H](N)Cc1ccc(OC)cc1)C(=O)N[C@@H](CCCNC(=N)N)C(=O)N[C@@H](CC(C)C)C(=O)N[C@@H](C)C(N)=O
B15: pal-I-R-C(SBut)-P-NH2 (peptide)
peptide: [pal]IRC(tBu)P-NH2
modifications: reading uncertain; also: pyridylalanine ring position not given here, printed as pal-I-R-C(SBut)-P-NH2
B16: Tfa-(Me)Y-I-R-L-A-NH2 (peptide)
peptide: Tfa-[NMeY]IRLA-NH2
SMILES: CC[C@H](C)[C@H](NC(=O)[C@H](Cc1ccc(O)cc1)N(C)C(=O)C(F)(F)F)C(=O)N[C@@H](CCCNC(=N)N)C(=O)N[C@@H](CC(C)C)C(=O)N[C@@H](C)C(N)=O
B17: Ac-Y(Me)-I-R-L-A-NH2 (peptide)
peptide: Ac-[Tyr(Me)″]IRLA-NH2
SMILES: CC[C@H](C)[C@H](NC(=O)[C@H](Cc1ccc(OC)cc1)NC(C)=O)C(=O)N[C@@H](CCCNC(=N)N)C(=O)N[C@@H](CC(C)C)C(=O)N[C@@H](C)C(N)=O
B18: Ac-βAla-Y-I-R-L-G-NH2 (peptide)
peptide: Ac-[βAla]YIRLG-NH2
SMILES: CC[C@H](C)[C@H](NC(=O)[C@H](Cc1ccc(O)cc1)NC(=O)CCNC(C)=O)C(=O)N[C@@H](CCCNC(=N)N)C(=O)N[C@@H](CC(C)C)C(=O)NCC(N)=O

Target: human factor Xa (Enzyme Research Laboratories, Inc.) (human, UniProt P00742 41-179; P00742 235-488, limits assumed)
Sequence (P00742 41-179 limits assumed, chain 1 of 2): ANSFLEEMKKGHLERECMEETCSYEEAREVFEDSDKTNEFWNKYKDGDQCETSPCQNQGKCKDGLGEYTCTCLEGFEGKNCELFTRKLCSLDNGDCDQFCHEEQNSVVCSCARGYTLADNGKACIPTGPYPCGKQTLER
Sequence (P00742 235-488 limits assumed, chain 2 of 2): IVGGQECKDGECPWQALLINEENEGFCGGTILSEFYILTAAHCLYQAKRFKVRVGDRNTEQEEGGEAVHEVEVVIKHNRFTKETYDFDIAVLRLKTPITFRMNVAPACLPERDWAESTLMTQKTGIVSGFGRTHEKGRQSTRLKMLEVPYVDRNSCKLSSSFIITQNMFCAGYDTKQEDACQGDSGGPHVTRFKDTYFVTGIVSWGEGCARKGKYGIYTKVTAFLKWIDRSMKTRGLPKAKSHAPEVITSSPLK
Assay: chromogenic FXa inhibition
Procedure: TBS-P buffer (50 mM Tris-Cl, pH 7.8, 200 mM NaCl, 0.05% (w/v) PEG-8000, 0.02% (w/v) NaN_3) was used for this assay. The IC$50$ was determined by combining in appropriate wells of a Costar half-area microtiter plate 25 μl human factor Xa (Enzyme Research Laboratories, Inc.; South Bend Ind.) in TBS-P; 40 μl 10% (v/v) DMSO in TBS-P (uninhibited control) or various concentrations of a peptide to be tested diluted in 10% (v/v) DMSO in TBS-P; and substrate S-2765 (Nα-benzyloxycarbonyl-D-Arg-Gly-L-Arg-p-nitroanilide; Kabi Pharmacia, Inc.; Franklin Ohio) in TBS-P.
The assays were performed by pre-incubating the peptide inhibitor plus enzyme for 10 min, then the assay was initiated by adding substrate to obtain a final volume of 100 μl. The initial velocity of chromogenic substrate hydrolysis was measured by the change in absorbance at 405 nm using a Bio-tek Instruments kinetic plate reader (Ceres UV900HDi) at 25° C. during the linear portion of the time course (usually 1–5 min after addition of substrate). The concentration of inhibitor that caused a 50% decrease in the rate of substrate hydrolysis was predicted by linear regression after plotting the relative rates of hydrolysis (compared to the uninhibited control) versus the log of the peptide concentration. The enzyme concentration was 0.5 nM and substrate concentration was 140 μM.

Binder	Ki [µM]
B1	< 100
B2	< 100
Ac-[(iBu)Tyr]I[Dab(Nγ-C3H7N)″]LP-NH2 [Ac-(iBu)Y-I-Dab(N^γ-C3H7N)-L-P-NH2]	< 100
B3	< 100
B4	< 100
B5	< 100
B6	< 100
XIRLP (N-term Ac; N-(Me) on Y1; C-term NH2) [Ac-(Me)Y-I-R-L-P-NH2]	< 100
Ac-YIRLP-NH2 [Ac-Y-I-R-L-P-NH2]	< 100
Ac-YIRIP [Ac-Y-I-R-I-P]	< 100
B7	< 100
Ac-YIRGP-NH2 (also: pseudo peptide bond ψ(COCH2) between R3 and G4) [Ac-Y-I-R-{ψ(COCH2)}-G-P-NH2]	< 100
Ac-YNRLP-NH2 [Ac-Y-N-R-L-P-NH2]	< 100
Ac-YIRLA (printed without -NH2) [Ac-Y-I-R-L-A]	< 100
XIRLP (N-term Ac; N-(trans-CH3-CH═C(CH3)-CH2) on Y1; C-term NH2) [Ac-(trans-CH3-CH═C(CH3)-CH2)Y-I-R-L-P-NH2]	< 100
B8	< 100
Ac-[NMeY][Chg]RLP-NH2 [Ac-(Me)Y-Chg-R-L-P-NH2]	< 100
Ac-[(iBu)Tyr][Chg]RLP-NH2 [Ac-(iBu)Y-Chg-R-L-P-NH2]	< 100
Ac-Y[Cha]RLP-NH2 [Ac-Y-Cha-R-L-P-NH2]	< 100

Binder	Ki [µM]
YXRLP (N-term Ac; residue 2 = allo-Ile; C-term NH2) [Ac-Y-(allo-I)-R-L-P-NH2]	< 100
Ac-Y[Phg]RLP-NH2 [Ac-Y-Pgl-R-L-P-NH2]	< 100
Ac-Y[Thr(Me)]RLP-NH2 [Ac-Y-T(Me)-R-L-P-NH2]	< 100
Ac-Y[Pen(Me)]RLP-NH2 [Ac-Y-Pen(Me)-R-L-P-NH2]	< 100
Isobutyl-YIRLA-NH2 [(iBu)Y-I-R-L-A-NH2]	< 100
B9	< 100
B10	< 100
B11	< 100
B12	< 100
B13	< 100
B14	< 100
B15	< 100
B16	< 100
B17	< 100
B18	< 100
Pth-YIRLP-NH2 (reading uncertain; also: printed as Pth-Y-I-R-L-P-NH2) [Pth-Y-I-R-L-P-NH2]	< 100
Ac-EYIRLPK-NH2 (also: cyclisation unknown (underlining lost), may be cyclic; underlining lost) [Ac-E-Y-I-R-L-P-K-NH2]	< 100
Ac-[(iBu)Tyr]I[Orn(Nδ-C3H7N)]LP-NH2 [Ac-(iBu)Y-I-Orn(N^δ-C3H7N)-L-P-NH2]	< 100
XIRLP (N-term Ac; Y1=Tyr(3,5-NO2); C-term NH2) [Ac-Tyr(3,5-NO2)-I-R-L-P-NH2]	< 100
